Two molecules from patent EP2009026A1 (ThromboGenics N.V., dated 2008) can be followed below.

For test [1], the target named is T1, GST fusion protein of VPAC1 extracellular loop 2 (human).
T1 construct: also called isolated extracellular loop 2 of the VPAC1 receptor; not shown: GST (glutathione-S-transferase) fusion partner
T1 chain: IHFEDYGCWDTINSSLWW
Description: western blotting of GST-loop fusion proteins.

Test [2] addresses T2, GST-fused VPAC1 variant 4-2 (amino acids 231-457 of SEQ ID NO:15) (human, UniProt P32241 231-457).
T2 construct: not shown: By analogy w [CUT]
T2 sequence: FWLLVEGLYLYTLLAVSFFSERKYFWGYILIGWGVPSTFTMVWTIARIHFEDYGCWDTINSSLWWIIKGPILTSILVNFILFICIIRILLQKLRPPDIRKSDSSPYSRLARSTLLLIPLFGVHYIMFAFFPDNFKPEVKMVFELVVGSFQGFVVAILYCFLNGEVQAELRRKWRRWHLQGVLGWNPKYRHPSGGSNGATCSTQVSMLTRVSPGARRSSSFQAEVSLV
Kind of test: western blotting of GST-fused VPAC1 deletion variants.

The target in test [3] is T3, GST-fused VPAC1 variant 3-2 (amino acids 123-457 of SEQ ID NO:15) (human, UniProt P32241 123-457).
T3 construct: not shown: By analogy w [CUT]
T3 sequence: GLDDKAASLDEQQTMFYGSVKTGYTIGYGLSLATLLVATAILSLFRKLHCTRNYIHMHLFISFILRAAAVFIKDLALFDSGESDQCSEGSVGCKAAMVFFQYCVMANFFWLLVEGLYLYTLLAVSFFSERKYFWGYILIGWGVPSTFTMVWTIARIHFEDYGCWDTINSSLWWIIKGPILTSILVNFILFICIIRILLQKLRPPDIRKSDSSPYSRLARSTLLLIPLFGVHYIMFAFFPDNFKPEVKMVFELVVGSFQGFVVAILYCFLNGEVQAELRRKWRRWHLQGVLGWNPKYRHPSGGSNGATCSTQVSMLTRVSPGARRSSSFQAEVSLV
Described as above.

Test [4] deals with T4, murine VPAC1 receptor on mouse bone marrow-derived CD41/61+ megakaryocytes (mouse, UniProt P97751 31-459).
T4 construct: whole, on cells; Endogenous receptor; It was detected by immunoblot of megakaryocytes and targeted on living megakaryocytes in the cAMP assay; also called VPAC1 receptor on the murine megakaryocytes
T4 sequence (looked up): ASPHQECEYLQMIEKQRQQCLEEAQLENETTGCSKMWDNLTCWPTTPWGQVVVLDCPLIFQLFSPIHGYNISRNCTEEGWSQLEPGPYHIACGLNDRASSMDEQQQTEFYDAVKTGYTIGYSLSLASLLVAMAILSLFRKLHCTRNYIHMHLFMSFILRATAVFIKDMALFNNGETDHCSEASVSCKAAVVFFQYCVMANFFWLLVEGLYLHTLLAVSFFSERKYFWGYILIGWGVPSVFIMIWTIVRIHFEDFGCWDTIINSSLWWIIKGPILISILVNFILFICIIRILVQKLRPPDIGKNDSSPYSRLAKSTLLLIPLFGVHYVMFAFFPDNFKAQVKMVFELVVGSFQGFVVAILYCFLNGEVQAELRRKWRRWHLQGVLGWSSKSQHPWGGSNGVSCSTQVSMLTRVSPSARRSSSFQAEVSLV
Kind of test: immunoblot of mouse bone marrow-derived megakaryocytes.

For test [5], the target named is T5, GST-VPAC1 fusion protein (human VPAC1, full length) (human, UniProt P08515 1-218 = GST).
T5 construct: also called recombinant VPAC1
Kind of test: SPR (BIAcore 1000), GST-VPAC1 immobilized; KA = 1/KD; first batch.

Test [6] has as its target T5, GST-VPAC1 fusion protein (human VPAC1, …). Kind of test: SPR (BIAcore 1000), GST-VPAC1 immobilized; KA = 1/KD; second batch.
The target is the same in test [7]. Description: SPR (BIAcore 1000), GST-VPAC1 immobilized on CM5 chip, antibody injected, 1:1 Langmuir fit; first batch.
Test [8] shares this target. Description: SPR (BIAcore 1000), GST-VPAC1 immobilized on CM5 chip, antibody injected, 1:1 Langmuir fit; second batch.
Test [9] has the same target. Description: SPR (BIAcore 1000), GST-VPAC1 immobilized; KA = 1/KD.
The target is the same in test [10]. Kind of test: SPR (BIAcore 1000), GST-VPAC1 immobilized on CM5 chip, antibody injected, 1:1 Langmuir fit.

Changes are numbered by the printed parent chain.

B1: murine monoclonal anti-VPAC1 antibody 23A11 (antibody, V domains shown)
VH: EVQLQESGPSLVKPSQTLSLTCSVTGDSITSGYWNWIRKFPGNKLEYMGYIRYSGSTYYSPALKSRFSITRDTSKNQYYLQLNSVTTEDTATYYCSNWAYWGQGTLVTVSA
VL: DIVITQDELSNPVTSGESVSISCRSSKSLLYKDGKTYLNWFLQRPGQSPQLLIYLMSTRASGVSDRFSGSGSGTDFTLEISRVKAEDVGVYYCQQLVEYPLTFGAGTKLELK
notes: Murine hybridoma antibody (BALB/c mice); also called murine 23A11; anti-VPAC1 receptor antibody 23A11
Regarding B1, the binding result in [1], in test [2], in test [3] and in test [4] was “binds” throughout. Further, the values for the Ka in [5] and in test [6] were 3.54e+07 M⁻¹ and 5.04e+07 M⁻¹, respectively. Besides, the Kd in test [7] was 28.3 nM; in [8], 19.9 nM.

B2: humanized 23A11 antibody (isotype not stated in Example 8) (antibody, V domains shown)
VH: EVQLQESGPGLVKPSQTLSLTCTVSGDSITSGYWNWIRKHPGKGLEYMGYIRYSGSTYYSPSLKSRFTISRDTSKNQYSLKLSSVTAADTATYYCSNWAYWGQGTLVTVSA
VL: B1 VL with D7S, E8P, N11L, S15P, S18P, E79K, K84E, A105Q, L111I
notes: The constant regions are human IgG1 or IgG4; also called humanize 23A11 antibody; rhu23A11
B2 returned a Ka in test [9] of 1.02e+08 M⁻¹. The molecule further returned a Kd in test [10] of 9.82 nM.
